Measurements as given in patent publication US20240026037A1 (Memorial Sloan Kettering, published 2024).
Positions count from the first letter of the chain named.

Experiments:
[1] = target: T1, Human GPA33 on GPA33+ colorectal cancer cell lines (Colo 205, LS 174T, SW 1222) (human, UniProt Q99795 22-319); assay: flow cytometry, LS 174T cells
T1 construct: Endogenous GPA33 on human colorectal cancer cell lines; also called surface human GPA33; GPA33+ tumor cell lines
T1 sequence: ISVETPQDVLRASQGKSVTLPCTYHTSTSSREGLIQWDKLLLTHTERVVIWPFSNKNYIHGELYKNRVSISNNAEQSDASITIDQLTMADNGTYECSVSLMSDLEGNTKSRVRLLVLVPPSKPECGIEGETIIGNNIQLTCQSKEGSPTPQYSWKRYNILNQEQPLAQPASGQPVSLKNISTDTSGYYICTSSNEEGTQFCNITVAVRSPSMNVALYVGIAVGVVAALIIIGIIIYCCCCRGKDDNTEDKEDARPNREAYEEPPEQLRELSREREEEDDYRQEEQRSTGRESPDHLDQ

[2] = target: T1, Human GPA33 on GPA33+ colorectal cancer …; assay: flow cytometry, SW 1222 cells
[3] = target: T1, Human GPA33 on GPA33+ colorectal cancer …; assay: flow cytometry, Colo 205 cells; Colo 205 cells
[4] = target: T1, Human GPA33 on GPA33+ colorectal cancer …; assay: FACS binding to LS174T cells (GPA33+)
[5] = target: T1, Human GPA33 on GPA33+ colorectal cancer …; assay: FACS binding to SW1222 cells (GPA33+)
[6] = target: T1, Human GPA33 on GPA33+ colorectal cancer …; assay: FACS binding to Colo205 cells (GPA33+)
[7] = target: T2, Human GPA33 (recombinant protein, Novoprotein) (human, UniProt Q99795 22-235); assay: SPR (Biacore), human GPA33 immobilized on CM5 chip, two-state fit
T2 construct: Bought recombinant protein immobilized on a CM5 chip; also called GPA33 antigen; tumor antigen GPA33
T2 sequence: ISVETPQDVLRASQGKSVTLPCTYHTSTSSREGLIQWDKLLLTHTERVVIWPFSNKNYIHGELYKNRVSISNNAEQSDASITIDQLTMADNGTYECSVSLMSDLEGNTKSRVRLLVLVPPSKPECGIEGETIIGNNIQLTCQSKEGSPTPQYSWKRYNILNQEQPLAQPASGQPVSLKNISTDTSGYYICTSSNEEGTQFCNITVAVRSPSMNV
Procedure: (§1) SPR analysis. Human GPA33 (Novoprotein, Summit, NJ) was immobilized on CM5 chips. Five concentrations of 2-fold serially diluted huA33 IgG1 or huA33-BsAbs (starting at 20 nM) were flowed over the chip using a Biacore™ T100 system (GE Healthcare, Chicago, IL). Binding kinetics of huA33 were measured at 25° C. and binding kinetics of huA33-BsAbs were measured at both 25° C. and 37° C. The sensorgrams were fitted with two state binding model for both to derive kinetic parameters.

[8] = target: T2, Human GPA33 (recombinant protein, …); assay: SPR (Biacore), human GPA33 immobilized on CM5 chip, two-state fit, ka1
Procedure: as §1

[9] = target: T2, Human GPA33 (recombinant protein, …); assay: SPR (Biacore), human GPA33 immobilized on CM5 chip, two-state fit, kd1
Method in brief: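 The off-rate (kd1) was determined by surface plasmon resonance against immobilised recombinant human GPA33, using a two-state binding model fit. Antibodies were tested on a CM5 chip in a Biacore T100 at five concentrations, from 20 nM in 2-fold serial dilutions. The parent IgG1 was measured at 25° C, and the bispecific formats at 25° C and 37° C.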

[10] = target: T2, Human GPA33 (recombinant protein, …); assay: SPR (Biacore), human GPA33 immobilised on the chip; KD relative to that of TC170
Method in brief: (§2)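 Recombinant human GPA33 (Novoprotein) was immobilised on a CM5 sensor chip, and antibodies were injected at five concentrations in 2-fold serial dilutions from 20 nM. Affinity (KD) was determined by surface plasmon resonance on a Biacore system, with kinetic fitting of the sensorgrams giving rate constants and KD. Every KD is reported as a ratio to the KD of a reference molecule.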

[11] = target: T1, Human GPA33 on GPA33+ colorectal cancer …; assay: cell binding to LS174T Luc cells; IgG format
[12] = target: T1, Human GPA33 on GPA33+ colorectal cancer …; assay: cell binding to SW1222 Luc cells; IgG format
[13] = target: T2, Human GPA33 (recombinant protein, …); assay: SPR (Biacore), binding to GPA33 protein; IgG format
Procedure: as §1

[14] = target: T2, Human GPA33 (recombinant protein, …); assay: SPR (Biacore), human GPA33 immobilised on the chip; KD relative to that of BC015
Method in brief: as §2

B1: TC160 (bispecific antibody)
chain: DIQMTQSQSSLSTSVGDRVTITCKASQNVRTVVAWYQQKPGKSPKTLIYLASNRHTGVPSRFSGSGSGTEFTLTISNVQPEDFADYFCLQHWSYPLTFGSGTKLEIKRGGGGSGGGGSGGGGSGGGGSGGGGSGGGGSEVQLVESGGGLVKPGGSLRLSCAASGFAFSTYDMSWVRQAPGKRLEWVATISSGGSYTYYLDSVKGRFTISRDNAKNSLYLQMNSLRAEDTAVYYCAPTTVVPFAYWGQGTLVTVSSGGGGSGGGGSGGGGSGGGGSHVQLVESGGGLVQPGGSLRLSCAASGFSLTDYGVHWVRQAPGKGLEWLGVIWSGGGTAYNTALISRFTISRDNSKNTLYLQMNSLRAEDTAVYYCARRGSYPYNYFDAWGCGTLVTVSSGGGGSGGGGSGGGGSGGGGSGGGGSGGGGSQAVVTQEPSLTVSPGGTVTLTCGSSTGAVTASNYANWVQQKPGQCPRGLIGGHNNRPPGVPARFSGSLLGGKAALTLLGAQPEDEAEYYCALWYSDHWVIGGGTKLTVLGTPLGDTTHTSGKPLDGEYFTLQIRGRERFEMFRELNEALELKDAQAGKEPGGSGGAPHHHHHH
notes: Previously described GPA33xDOTA SADA clone, with the other VH/VL orientation than TC159; Carries the p53 SADA (tetramerization) domain
- IC50 [1]: 560 pM
- IC50 [2]: 360 pM
- EC50 [3]: 1200 pM
- fold change of binding EC50 (relative to TC170, lower is better) [4]: 1.81
- fold change of binding EC50 (relative to TC170, lower is better) [5]: 0.22
- fold change of binding EC50 (relative to TC170, lower is better) [6]: 1.62
- Kd [7]: 51.8 pM
- ka2 [7]: 0.00678 s⁻¹
- kd2 [7]: 0.000654 s⁻¹
- kon [8]: 3.43e+06 M⁻¹ s⁻¹
- koff [9]: 0.00202 s⁻¹
- Fold change of KD (relative to TC170, lower is better) [10]: 3.4

B2: G3A_VK8+VH3 (antibody, V domains shown)
VH: EVQLVESGGGLVKPGGSLRLSCAASGFAFSTYDMSWVRQAPGKGLEWVATISSGGSYTYYADSVKGRFTISRDSAKNSLYLQMNSLRAEDTAVYYCAPTTVVPFAYWGQGTLVTVSA
VL: DIQMTQSPSSLSASVGDRVTITCKASQNVRTVVAWYQQKPGKAPKRLIYLASNRHTGVPSRFSGSGSGTEFTLTISNLQPEDFADYYCLQHWSYPLTFGSGTKLEVK
- EC50 [11]: 0.433 µg/mL
- EC50 [12]: 0.792 µg/mL
- Kd [13]: 1890 pM

B3: BC105 (bispecific antibody, human IgG1, kappa, N297A)
heavy: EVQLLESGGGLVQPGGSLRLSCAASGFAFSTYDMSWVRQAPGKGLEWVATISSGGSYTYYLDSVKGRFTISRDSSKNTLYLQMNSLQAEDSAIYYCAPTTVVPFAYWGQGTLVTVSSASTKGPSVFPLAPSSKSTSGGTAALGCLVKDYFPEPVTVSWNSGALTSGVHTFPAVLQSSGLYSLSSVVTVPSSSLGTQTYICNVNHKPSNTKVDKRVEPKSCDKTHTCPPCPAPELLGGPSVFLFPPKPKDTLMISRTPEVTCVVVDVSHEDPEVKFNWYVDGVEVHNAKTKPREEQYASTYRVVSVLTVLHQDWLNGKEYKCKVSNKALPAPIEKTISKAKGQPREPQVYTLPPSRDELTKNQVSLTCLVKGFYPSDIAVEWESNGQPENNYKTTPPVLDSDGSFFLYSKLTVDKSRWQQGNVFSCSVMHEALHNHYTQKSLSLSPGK
light: DIQMTQSPSSLSVSVGDRVTITCKASQNVRTVVAWYQQKPGLAPKTLIYLASNRHTGVPSRFSGSGSGTDFTFTISSLQPEDIATYFCQQHWSYPLTFGQGTKVEVKRTVAAPSVFIFPPSDEQLKSGTASVVCLLNNFYPREAKVQWKVDNALQSGNSQESVTEQDSKDSTYSLSSTLTLSKADYEKHKVYACEVTHQGLSSPVTKSFNRGECGGGGSGGGGSASHVKLQESGPGLVQPSQSLSLTCTVSGFSLTDYGVHWVRQSPGKGLEWLGVIWSGGGTAYNTALISRLNIYRDNSKNQVFLEMNSLQAEDTAMYYCARRGSYPYNYFDAWGCGTTVTVSSGGGGSGGGGSGGGGSQAVVIQESALTTPPGETVTLTCGSSTGAVTASNYANWVQEKPDHCFTGLIGGHNNRPPGVPARFSGSLIGDKAALTIAGTQTEDEAIYFCALWYSDHWVIGGGTRLTVLG
notes: Previously described GPA33xDOTA IgG-[L]-scFv clone; The light chain entry carries the anti-DOTA scFv at its C-terminus; also called GPA33 BsAb-IgG (BC105); GPA33 clone BC105 BsAb
- Kd [7]: 1210 pM
- ka2 [7]: 0.00238 s⁻¹
- kd2 [7]: 0.000697 s⁻¹
- kon [8]: 4.43e+06 M⁻¹ s⁻¹
- koff [9]: 0.0236 s⁻¹
- Fold change of KD (relative to BC015, lower is better) [14]: 10.2

B4: BC155 (bispecific antibody, human IgG1, kappa, N297A)
heavy: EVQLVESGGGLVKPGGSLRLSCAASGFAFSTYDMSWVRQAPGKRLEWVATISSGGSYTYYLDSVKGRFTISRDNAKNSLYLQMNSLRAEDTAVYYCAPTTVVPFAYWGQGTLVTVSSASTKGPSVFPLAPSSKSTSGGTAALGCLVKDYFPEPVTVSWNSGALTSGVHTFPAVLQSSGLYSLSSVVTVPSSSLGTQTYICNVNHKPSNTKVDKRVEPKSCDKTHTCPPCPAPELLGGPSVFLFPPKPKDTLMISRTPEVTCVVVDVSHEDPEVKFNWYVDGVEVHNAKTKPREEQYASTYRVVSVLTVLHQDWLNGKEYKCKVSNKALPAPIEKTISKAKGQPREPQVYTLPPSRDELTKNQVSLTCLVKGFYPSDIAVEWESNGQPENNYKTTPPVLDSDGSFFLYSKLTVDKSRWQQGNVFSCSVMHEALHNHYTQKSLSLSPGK
light: DIQMTQSQSSLSTSVGDRVTITCKASQNVRTVVAWYQQKPGKSPKTLIYLASNRHTGVPSRFSGSGSGTEFTLTISNVQPEDFADYFCLQHWSYPLTFGSGTKLEIKRTVAAPSVFIFPPSDEQLKSGTASVVCLLNNFYPREAKVQWKVDNALQSGNSQESVTEQDSKDSTYSLSSTLTLSKADYEKHKVYACEVTHQGLSSPVTKSFNRGECTSGGGGSGGGGSGGGGSHVQLVESGGGLVQPGGSLRLSCAASGFSLTDYGVHWVRQAPGKGLEWLGVIWSGGGTAYNTALISRFTISRDNSKNTLYLQMNSLRAEDTAVYYCARRGSYPYNYFDAWGCGTLVTVSSGGGGSGGGGSGGGGSGGGGSGGGGSGGGGSQAVVTQEPSLTVSPGGTVTLTCGSSTGAVTASNYANWVQQKPGQCPRGLIGGHNNRPPGVPARFSGSLLGGKAALTLLGAQPEDEAEYYCALWYSDHWVIGGGTKLTVLG
notes: Previously described GPA33xDOTA IgG-[L]-scFv clone; The light chain entry carries the anti-DOTA scFv at its C-terminus
- Kd [7]: 171 pM
- ka2 [7]: 0.00328 s⁻¹
- kd2 [7]: 0.00164 s⁻¹
- kon [8]: 4.13e+06 M⁻¹ s⁻¹
- koff [9]: 0.00212 s⁻¹
- Fold change of KD (relative to BC015, lower is better) [14]: 1.45

B5: BC178 (bispecific antibody)
heavy: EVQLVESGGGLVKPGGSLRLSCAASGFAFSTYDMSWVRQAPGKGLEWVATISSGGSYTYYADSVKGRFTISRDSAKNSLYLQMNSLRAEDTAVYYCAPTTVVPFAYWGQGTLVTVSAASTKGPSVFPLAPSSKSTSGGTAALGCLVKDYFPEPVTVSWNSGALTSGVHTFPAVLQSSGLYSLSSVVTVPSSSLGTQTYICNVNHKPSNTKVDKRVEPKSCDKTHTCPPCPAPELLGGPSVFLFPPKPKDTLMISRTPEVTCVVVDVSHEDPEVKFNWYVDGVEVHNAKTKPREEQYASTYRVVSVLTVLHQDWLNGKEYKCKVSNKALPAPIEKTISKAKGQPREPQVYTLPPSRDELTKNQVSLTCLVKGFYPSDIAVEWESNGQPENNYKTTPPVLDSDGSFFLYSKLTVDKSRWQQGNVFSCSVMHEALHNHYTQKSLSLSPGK
light: B4 light with Q8P, S43A, T56S, V78L, D85T, F87Y, I106V
- Kd [7]: 7.92 pM
- ka2 [7]: 0.0541 s⁻¹
- kd2 [7]: 0.00504 s⁻¹
- kon [8]: 5.5e+06 M⁻¹ s⁻¹
- koff [9]: 0.000511 s⁻¹
